{"source": "paper PMC3217976", "about": "“A Conserved GA Element in TATA-Less RNA Polymerase II Promoters”", "key": {"TBPcore;TFIIB [1]": {"molecular_target": "T1, TBPcore;TFIIB (Saccharomyces cerevisiae?;Saccharomyces …, UniProt P13393;P29055 61-240;1-345, |)", "T1 sequence 1": "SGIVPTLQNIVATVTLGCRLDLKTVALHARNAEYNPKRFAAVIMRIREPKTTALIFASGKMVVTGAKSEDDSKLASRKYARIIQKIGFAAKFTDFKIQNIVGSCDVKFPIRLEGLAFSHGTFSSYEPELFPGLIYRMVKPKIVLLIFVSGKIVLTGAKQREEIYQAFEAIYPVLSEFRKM", "T1 sequence 2": "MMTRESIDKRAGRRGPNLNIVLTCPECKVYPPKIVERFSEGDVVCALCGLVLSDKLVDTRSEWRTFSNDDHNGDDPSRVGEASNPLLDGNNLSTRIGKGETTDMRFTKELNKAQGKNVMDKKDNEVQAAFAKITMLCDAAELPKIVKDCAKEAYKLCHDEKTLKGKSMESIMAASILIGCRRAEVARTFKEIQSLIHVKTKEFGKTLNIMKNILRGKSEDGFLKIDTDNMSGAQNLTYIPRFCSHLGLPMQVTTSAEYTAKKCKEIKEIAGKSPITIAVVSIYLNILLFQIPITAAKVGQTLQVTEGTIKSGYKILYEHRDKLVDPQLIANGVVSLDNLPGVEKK", "assay": "EMSA; not impaired; EMSA: 3 nM DNA, 300 nM TBPcore, 3 uM TFIIB, 4 mM Tris-HCl pH 8.0, 60 mM KCl, 5 mM MgCl2, 4% glycerol, 1 mM DTT, 100 ug/ml BSA, 0.1% Tween 20, 50 ug/ml heparin", "conditions": "protein: recombinant;recombinant; tags: ;; copies: 1;1; label: 5'-Cy5 on coding strand; blunt"}, "TBPcore [2]": {"molecular_target": "T2, TBPcore (UniProt P13393 61-240)", "T2 sequence": "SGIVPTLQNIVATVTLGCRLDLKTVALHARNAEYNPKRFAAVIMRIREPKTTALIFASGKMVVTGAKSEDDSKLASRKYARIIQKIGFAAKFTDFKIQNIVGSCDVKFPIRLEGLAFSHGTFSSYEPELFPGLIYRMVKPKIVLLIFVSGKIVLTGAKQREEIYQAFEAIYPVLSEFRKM", "assay": "EMSA; not impaired; EMSA: 3 nM DNA, 300 nM TBPcore, 3 uM TFIIB, 4 mM Tris-HCl pH 8.0, 60 mM KCl, 5 mM MgCl2, 4% glycerol, 1 mM DTT, 100 ug/ml BSA, 0.1% Tween 20, 50 ug/ml heparin", "conditions": "protein: recombinant; label: 5'-Cy5 on coding strand; blunt"}, "TBPcore;TFIIB [3]": {"molecular_target": "T1, TBPcore;TFIIB", "assay": "EMSA; GAE region not sufficient for binding; EMSA: 3 nM DNA, 300 nM TBPcore, 3 uM TFIIB, 4 mM Tris-HCl pH 8.0, 60 mM KCl, 5 mM MgCl2, 4% glycerol, 1 mM DTT, 100 ug/ml BSA, 0.1% Tween 20, 50 ug/ml heparin", "conditions": "protein: recombinant;recombinant; tags: ;; copies: 1;1; label: 5'-Cy5 on coding strand; blunt"}, "TBPcore [4]": {"molecular_target": "T2, TBPcore", "assay": "EMSA; GAE region not sufficient for binding; EMSA: 3 nM DNA, 300 nM TBPcore, 3 uM TFIIB, 4 mM Tris-HCl pH 8.0, 60 mM KCl, 5 mM MgCl2, 4% glycerol, 1 mM DTT, 100 ug/ml BSA, 0.1% Tween 20, 50 ug/ml heparin", "conditions": "protein: recombinant; label: 5'-Cy5 on coding strand; blunt"}, "TBPcore [5]": {"molecular_target": "T2, TBPcore", "assay": "EMSA; 300 nM TBPcore, 50 ug/ml heparin; EMSA: 3 nM DNA, 300 nM TBPcore, 3 uM TFIIB, 4 mM Tris-HCl pH 8.0, 60 mM KCl, 5 mM MgCl2, 4% glycerol, 1 mM DTT, 100 ug/ml BSA, 0.1% Tween 20, 50 ug/ml heparin", "conditions": "protein: recombinant; label: 5'-Cy5 on coding strand; blunt"}, "TBPcore;TFIIB [6]": {"molecular_target": "T1, TBPcore;TFIIB", "assay": "EMSA; 300 nM TBPcore, 3 uM TFIIB, 50 ug/ml heparin; EMSA: 3 nM DNA, 300 nM TBPcore, 3 uM TFIIB, 4 mM Tris-HCl pH 8.0, 60 mM KCl, 5 mM MgCl2, 4% glycerol, 1 mM DTT, 100 ug/ml BSA, 0.1% Tween 20, 50 ug/ml heparin", "conditions": "protein: recombinant;recombinant; tags: ;; copies: 1;1; label: 5'-Cy5 on coding strand; blunt"}, "TBPcore;TFIIB [7]": {"molecular_target": "T1, TBPcore;TFIIB", "assay": "EMSA; not affected vs TMT1 (GAE); EMSA: 3 nM DNA, 300 nM TBPcore, 3 uM TFIIB, 4 mM Tris-HCl pH 8.0, 60 mM KCl, 5 mM MgCl2, 4% glycerol, 1 mM DTT, 100 ug/ml BSA, 0.1% Tween 20, 50 ug/ml heparin", "conditions": "protein: recombinant;recombinant; tags: ;; copies: 1;1; label: 5'-Cy5 on coding strand; blunt"}, "TBPcore [8]": {"molecular_target": "T2, TBPcore", "assay": "EMSA; not affected vs TMT1 (GAE); EMSA: 3 nM DNA, 300 nM TBPcore, 3 uM TFIIB, 4 mM Tris-HCl pH 8.0, 60 mM KCl, 5 mM MgCl2, 4% glycerol, 1 mM DTT, 100 ug/ml BSA, 0.1% Tween 20, 50 ug/ml heparin", "conditions": "protein: recombinant; label: 5'-Cy5 on coding strand; blunt"}}}
{"binder": "TMT1 (TATA) (dsDNA) DNA 1: ATTTTCATTTTTTATATAATATGTAACTAATTTAGT DNA 2: ACTAAATTAGTTACATATTATATAAAAAATGAAAAT", "values": [{"measurement": "binding result", "setting": "TBPcore;TFIIB [1]", "value": "binds"}, {"measurement": "binding result", "setting": "TBPcore [2]", "value": "binds"}]}
{"binder": "HIS4 (GAE) (dsDNA) DNA 1: TAGTATACTGTGAAAGGAAAAGGAAGATATGGAACGTTAT DNA 2: ATAACGTTCCATATCTTCCTTTTCCTTTCACAGTATACTA", "values": [{"measurement": "binding result", "setting": "TBPcore;TFIIB [3]", "value": "no binding"}, {"measurement": "binding result", "setting": "TBPcore [4]", "value": "no binding"}]}
{"binder": "TMT1 (GAE) (dsDNA) DNA 1: ATTTTCATTTTTAAAGGAAAAGGAATGTAACTAATTTAGT DNA 2: ACTAAATTAGTTACATTCCTTTTCCTTTAAAAATGAAAAT", "values": [{"measurement": "binding result", "setting": "TBPcore [5]", "value": "binds"}, {"measurement": "binding result", "setting": "TBPcore;TFIIB [6]", "value": "binds"}]}
{"binder": "TMT1 (A-12) (dsDNA) DNA 1: ATTTTCATTTTTAAAAAAAAAAAAATGTAACTAATTTAGT DNA 2: ACTAAATTAGTTACATTTTTTTTTTTTTAAAAATGAAAAT", "values": [{"measurement": "binding result", "setting": "TBPcore;TFIIB [7]", "value": "binds"}, {"measurement": "binding result", "setting": "TBPcore [8]", "value": "binds"}]}
{"binder": "HIS4 (TATA) (dsDNA) DNA 1: ACAGTAGTATACTGTGTATATAATAGATATGGAACGTTAT DNA 2: ATAACGTTCCATATCTATTATATACACAGTATACTACTGT", "values": [{"measurement": "binding result", "setting": "TBPcore [5]", "value": "binds"}, {"measurement": "binding result", "setting": "TBPcore;TFIIB [6]", "value": "binds"}]}
